Reference: patent US20060239990A1, “Protein Arginine N-Methyltransferase 2 (PRMT-2)” (priority 2003, published 2006)

Legend:
NF-κB = NF-κB luciferase reporter assay in 293T cells; type: cell-based, human; conditions: for NF-κB activity: 1 μg expression construct, 100 ng 5 κB luciferase reporter; for IKK2- and p65-induced NF-κB activity: κB luciferase reporter, 48 hrs
Procedure: Cell culture, transfection, and reporter gene assays. The E1A-transformed, human kidney cell line, 293, and NIH-3T3 cells were maintained in Dulbecco's Modified Eagle Medium (DMEM) supplemented with 10% fetal calf serum and penicillin-streptomycin at 37° C. in 5% carbon dioxide in tissue culture grade Petri dishes. PRMT-2−/− mouse embryo fibroblasts (MEFs) and wild type MEFs were prepared from day 13.5 embryos and maintained in DMEM supplemented with 10% fetal calf serum. MEFs at passage 4 were used in this experiment. Lipofectamine Plus™ reagent (Boehringer Mannheim) was used to transfect both 293 and NIH-3T3 cells according to directions from the manufacturer. […] TNF-α stimulation of cells was done using recombinant TNF-α (200 U/ml) for 12 hours. […] CAT assays were performed essentially as described in Leung, K. & Nabel, G. J. Nature 333, 776-778 (1988). To analyze the κB-reporter activity in MEFs, cells were transfected with the reporter (2×kB-Luc) and PRL-TK vector (Promega) using FuGENE6 transfection reagent (Roche). Luciferase activity was analyzed by Dual-Luciferase Reporter Assay System (Promega).
To map the domains responsible for inhibition of HIV transcription, truncation and point mutations were made in PRMT2 (FIG. 1D) and co-transfected with an NF-κB reporter in 293T cells. PRMT2-A represents an alternatively spliced form of PRMT2 found in the expressed sequence tag (EST) database. This isoform contains the first 218 amino acids of PRMT2 and differs from full length PRMT2 by the absence of the less conserved COOH-terminal domain. PRMT2-N was generated by introducing a stop codon after amino acid 95 before the putative Ado-Met domain of PRMT2. To analyze the role of the Ado-Met domain further, another mutant, PRMT2-4A, was prepared in which 141ILDV144 (SEQ ID NO:5) in this region were altered to four consecutive alanines to compare the effects of point mutations in this highly conserved region.
The mechanism and site of action of PRMT2 in the NF-κB signaling pathway was further defined by co-transfection of PRMT2 and its mutants with different regulators in this pathway with an NF-κB reporter in 293T cells (FIG. 2D).

p50/p65 complex = test: NF-κB DNA binding assay (EMSA); type: biochemical, human; conditions: 293 cells cotransfected with p50 and p65 expression vectors
Procedure: DNA binding assay. Electrophoretic mobility shift assays (EMSAs) were conducted on 10 μg of nuclear extract protein from 293 cells transiently transfected with pRSV p50/p65 expression constructs and pVR1012 PRMT-2-A/PRMT-2-N expression constructs. A modified Dignam procedure (Dignam et al. Nucleic Acids Res. 11, 1475-1489 (1983)) was used to prepare nuclear extracts from 293 cells. Perkins, N. D. et al. Science 275, 523-527 (1997). NF-KB DNA binding was assayed using a double-stranded 32P-labeled κB probe (Geneka Biotechnology). DNA binding assays were performed as described previously. Perkins et al. Science 275, 523-527 (1997). Supershifting was done using NF-κB p65 (C-20) and NF-κB p50 (H-119) (Santa Cruz). GST-PRMT-2-A fusion proteins were expressed in BL21 (DE3) cells and extracts were prepared as described previously. Smith, D. B. & Johnson, K. S. Gene 67, 31-40 (1988).

IκB-α = test: Co-immunoprecipitation with endogenous IκB-α in 293 cells; type: binding, human; conditions: HA-tagged constructs in 293 cells
IκB-α, sequence (P25963 whole entry, the tested form may be a part): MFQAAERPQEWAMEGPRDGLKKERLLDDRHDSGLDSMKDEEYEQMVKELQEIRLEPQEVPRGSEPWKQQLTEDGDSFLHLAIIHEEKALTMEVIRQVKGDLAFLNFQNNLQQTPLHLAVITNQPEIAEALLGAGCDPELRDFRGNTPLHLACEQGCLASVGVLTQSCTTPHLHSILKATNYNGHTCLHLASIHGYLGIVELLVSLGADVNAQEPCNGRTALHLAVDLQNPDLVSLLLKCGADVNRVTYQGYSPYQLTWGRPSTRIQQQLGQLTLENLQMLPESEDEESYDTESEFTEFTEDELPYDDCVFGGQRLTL
From the text: A polyclonal antibody to recombinant PRMT2 was used to examine the association between endogenous PRMT2 and IκB-α in vivo. […] The domain of IκB-α required for association with PRMT2 was mapped using in vivo immunoprecipitation assays where HA-tagged PRMT2 was coexpressed with truncation mutants of His-tagged IκB-α (FIG. 5B) in 293 cells. The ankyrin domain was both necessary and sufficient for this association (FIG. 5D, lanes 1 and 2). The domain of PRMT2 that interacted with endogenous IκB-α was mapped by immunoprecipitation following expression HA-tagged PRMT2 truncation mutants (FIG. 5C). […] When the ratios of PRMT2 or PRMT2-A binding to IκB-α were compared, both interacted with IκB-α with similar affinity.

[1] = tested on: HIV-1, HIV-2, HTLV-1, or HTLV-2 reporter plasmids; test: CAT reporter assay with viral reporter plasmids in 293 cells; type: cell-based, human
Procedure: Cell culture, transfection, and reporter gene assays. The E1A-transformed, human kidney cell line, 293, and NIH-3T3 cells were maintained in Dulbecco's Modified Eagle Medium (DMEM) supplemented with 10% fetal calf serum and penicillin-streptomycin at 37° C. in 5% carbon dioxide in tissue culture grade Petri dishes. PRMT-2−/− mouse embryo fibroblasts (MEFs) and wild type MEFs were prepared from day 13.5 embryos and maintained in DMEM supplemented with 10% fetal calf serum. MEFs at passage 4 were used in this experiment. Lipofectamine Plus™ reagent (Boehringer Mannheim) was used to transfect both 293 and NIH-3T3 cells according to directions from the manufacturer. […] TNF-α stimulation of cells was done using recombinant TNF-α (200 U/ml) for 12 hours. Transfected cells were harvested at 36 hours, and CAT activity was assayed on 10 to 100 μg of protein from whole cell extracts. CAT assays were performed essentially as described in Leung, K. & Nabel, G. J. Nature 333, 776-778 (1988). To analyze the κB-reporter activity in MEFs, cells were transfected with the reporter (2×kB-Luc) and PRL-TK vector (Promega) using FuGENE6 transfection reagent (Roche). Luciferase activity was analyzed by Dual-Luciferase Reporter Assay System (Promega). […]

STAT3 = STAT3 arginine methylation in transfected HEK293 cells; type: cell-based; conditions: 24 hr after transfection, α-metR immunoblot
Procedure: Vascular smooth muscle cells (VSMC) were prepared from the thoracic aorta of 12-week-old-male wild-type and PRMT-2^−/− mice by the explant method. Mouse embryo fibroblasts (MEFs) were prepared from 13.5-day wild-type and PRMT-2^−/− embryos. VSMCs and MEFs were cultured in Dulbecco's modified Eagle's medium (DMEM) containing 10% fetal calf serum (FCS) at 37° C. in a humidified atmosphere of 95% air-5% CO2. The integrity of PRMT-2 expression in the established VSMCs and MEFs lines was confirmed by Western and immunofluorescence analysis (data not shown). Quiescent VSMC (3-5th passages) that had been serum-starved for 48 hr were used in the following experiments. HEK293 cells were also grown in DMEM plus 10% FCS and were transiently transfected with FuGENE6 transfection reagent (Roche Applied Science, Indianapolis, Ind.) according to the manufacture's protocol. For each transfection, 2 μg of expression construct for mouse PRMT-2 and 8 μg for mouse STAT3 were used. After 24-48 hr of transfection, cells were used for the following experiments.
Immunoprecipitation of STAT3 was performed as follows. […]

Row | Molecule | NF-κB activity (NF-κB) | IKK2- and p65-induced NF-κB activity (NF-κB) | NF-κB DNA binding in nuclear extracts of transfected cells (p50/p65 complex) | association with endogenous IκB-α (IκB-α) | expression from HIV-2 or HTLV reporter plasmids [1] | HIV-1 CAT expression ([1]; HIV-1 reporter plasmid) | Stat3 methylation (STAT3)
1 | PRMT2-N: generated by introducing a stop codon after amino acid 95 of PRMT-2, SEQ ID NO:4 (protein, A synthetic PRMT-2-N polypeptide) MATSGDCPRSESQGEEPAECSEAGLLQEGVQPEEFVAIADYAATDETQLSFLRGEKILILRQTTADWWWGERAGCCGYIPANHVGKHVDEYDPED | did not | unable to block this effect | did not affect NF-κB DNA binding | did not associate |  |  | 
2 | PRMT2-A: alternatively spliced form containing the first 218 amino acids of PRMT-2, SEQ ID NO:3 (protein, A synthetic PRMT-2-A mutant polypeptide) MATSGDCPRSESQGEEPAECSEAGLLQEGVQPEEFVAIADYAATDETQLSFLRGEKILILRQTTADWWWGERAGCCGYIPANHVGKHVDEYDPEDTWQDEEYFGSYGTLKLHLEMLADQPRTTKYHSVILQNKESLTDKVILDVGCGTGIISLFCAHYARPRAVYAVEASEMAQHTGQLVLQNGFADIITVYQQKVEDVVLPEKVDVLVSEWMGTCLL | inhibited NF-κB activity | inhibited both IKK2- and p65-induced NF-κB activity |  | interacted | No significant reduction | substantially inhibited | 
3 | mutant PRMT-2: mutated PRMT-2 lacking functional Ado-Met domain (the PRMT-2-4A mutant according to b407) (protein) MATSGDCPRSESQGEEPAECSEAGLLQEGVQPEEFVAIADYAATDETQLSFLRGEKILILRQTTADWWWGERAGCCGYIPANHVGKHVDEYDPEDTWQDEEYFGSYGTLKLHLEMLADQPRTTKYHSVILQNKESLTDKVAAAAGCGTGIISLFCAHYARPRAVYAVEASEMAQHTGQLVLQNGFADIITVYQQKVEDVVLPEKVDVLVSEWMGTCLLFEFMIESILYARDAWLKEDGVIWPTMAALHLVPCSADKDYRSKVLFWDNAYEFNLSALKSLAVKEFFSKPKYNHILKPEDCLSEPCTILQLDMRTVQISDLETLRGELRFDIRKAGTLHGFTAWFSVHFQSLQEGQPPQVLSTGPFHPTTHWKQTLFMMDDPVPVHTGDVVTGSVVLQRNPVWRRHMSVALSWAVTSRQDPTSQKVGEKVFPIWR |  |  |  |  |  |  | failed to evoke STAT3 methylation
